Source: paper PMC11402598
Values joined by “and” are separate entries in the source; they are usually repeats but may differ in a detail not shown here. Equal entries are not always repeated.

How the values were obtained:
[1] = molecular target: O432-17(–) nanoparticle assembled with Fc (human); assay: SEC; in vitro packaging: 1x tetramer, 1x Fc, 1.1x negatively charged trimeric plug, 1x pos36GFP, dialysed 16 h at 25 °C into 25 mM Tris pH 8.0, 200 mM NaCl; Superose 6 10/300 GL; absorbance at 280 and 488 nm
Fc of human IgG1 (human) = assay: cryo-EM structure; pre-SEC O432-17-Fc sample, 0.5 mg/ml in 25 mM Tris pH 8.0, 150 mM NaCl; octahedral symmetry applied; design model refined into the map

Substance	stoichiometry N (pos36GFP per nanoparticle) [1]	stoichiometry N (Fc of human IgG1 (human))
positively charged GFP (pos36GFP)	9 and 10	
Fc of human IgG1 (domain or fragment)		2
